Measured values: patent publication US7205275 (dated 2007)
Primed or numbered codes have the meaning given here. Where no end group is shown, it is not given here. [ ]: non-standard residue; d: D form. Fc(4) = non-antigen-binding fragment of an antibody (from proteolytic digestion of a whole antibody); Fc = immunoglobulin Fc domain fused to the peptide (peptibody); Fc(7) = Fc domain, peptide fused N- or C-terminal to it

T1: human Ang-2 (human, UniProt O15123)
T1 chain: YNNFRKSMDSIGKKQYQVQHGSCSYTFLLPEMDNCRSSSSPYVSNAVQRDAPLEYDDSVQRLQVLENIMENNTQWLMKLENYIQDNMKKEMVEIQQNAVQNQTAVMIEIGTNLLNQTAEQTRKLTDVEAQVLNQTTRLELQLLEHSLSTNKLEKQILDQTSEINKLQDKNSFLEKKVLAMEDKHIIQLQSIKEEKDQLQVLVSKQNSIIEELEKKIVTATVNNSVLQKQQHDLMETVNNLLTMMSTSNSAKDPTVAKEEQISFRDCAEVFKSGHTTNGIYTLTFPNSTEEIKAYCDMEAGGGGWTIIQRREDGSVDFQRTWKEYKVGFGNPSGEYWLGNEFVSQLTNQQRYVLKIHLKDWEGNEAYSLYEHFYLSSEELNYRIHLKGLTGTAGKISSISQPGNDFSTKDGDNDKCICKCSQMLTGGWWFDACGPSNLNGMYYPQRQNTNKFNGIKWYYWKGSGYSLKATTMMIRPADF

B1: Con4-C4 (C) (peptide)
chain: M[Fc(4)]GGGGGAQTTIGSMCQWDPWTCEHMQGGLE
modifications: not fully specified (bridges); cysteine pairing not given here
B2: Con4-32 (C) (peptide)
chain: M[Fc]GGGGGAQKSTQDDCDWDPWTCEHMVGPLE
modifications: not fully specified; cysteine pairing not given here
B3: Con4-18 (C) (peptide)
chain: M[Fc(7)]GGGGGAQWVNEVVCEWDPWTCNHWDTPLE
modifications: not fully specified (bridges); cysteine pairing not given here
B4: Con4-33 (C) (peptide)
chain: M[Fc]GGGGGAQPMNQVECDWDPWTCEHMPRSLE
modifications: not fully specified; cysteine pairing not given here
B5: Con4-C2 (C) (peptide)
chain: M[Fc(4)]GGGGGAQTTIGSMCQWDPWTCAHMQGGLE
modifications: not fully specified (bridges); cysteine pairing not given here
B6: Con4-20 (C) (peptide)
chain: M[Fc(7)]GGGGGAQQVIGRPCEWDPWTCEHLEGLLE
modifications: not fully specified (bridges); cysteine pairing not given here
B7: Con4-38 (C) (peptide)
chain: M[Fc]GGGGGAQPRLQEECVWDPWTCEHMPLRLE
modifications: not fully specified; cysteine pairing not given here
B8: Con4-1 (C) (peptide)
chain: M[Fc(7)]GGGGGAQVLGGQGCQWDPWTCSHLEDGLE
modifications: not fully specified (bridges); cysteine pairing not given here
B9: Con4-19 (C) (peptide)
chain: M[Fc(7)]GGGGGAQVVQVGMCQWDPWTCKHMRLQLE
modifications: not fully specified (bridges); cysteine pairing not given here
B10: Con4-9 (C) (peptide)
chain: M[Fc(4)]GGGGGAQGTSPSFCQWDPWTCSHMVQGLE
modifications: not fully specified; cysteine pairing not given here
B11: Con4-48 (C) (peptide)
chain: M[Fc(4)]GGGGGAQGHSQEECGWDPWTCEHMGTSLE
modifications: not fully specified; cysteine pairing not given here
B12: Con4-6 (C) (peptide)
chain: M[Fc(4)]GGGGGAQWPQTEGCQWDPWTCRLLHGWLE
modifications: not fully specified; cysteine pairing not given here
B13: Con4-5 (C) (peptide)
chain: M[Fc(4)]GGGGGAQATFARQCQWDPWTCALGGNWLE
modifications: not fully specified; cysteine pairing not given here
B14: AC1-Con4 (C) (peptide)
chain: M[Fc(7)]GGGGGAQTWPQDKCEWDPWTCRLLQGWLE
modifications: not fully specified (bridges); cysteine pairing not given here
B15: Con4-8 (C) (peptide)
chain: M[Fc(4)]GGGGGAQSTIGDMCEWDPWTCAHMQVDLE
modifications: not fully specified; cysteine pairing not given here
B16: Con4-C5 (C) (peptide)
chain: M[Fc(4)]GGGGGAQAATQEECEWDPWTCEHMPRSLE
modifications: not fully specified (bridges); cysteine pairing not given here
B17: Con4-50 (C) (peptide)
chain: M[Fc(4)]GGGGGAQHGQNMECEWDPWTCEHMFRYLE
modifications: not fully specified; cysteine pairing not given here
B18: Con4-11 (C) (peptide)
chain: M[Fc(7)]GGGGGAQQGMKMFCEWDPWTCAHIVYRLE
modifications: not fully specified (bridges); cysteine pairing not given here
B19: Con4-35 (C) (peptide)
chain: M[Fc]GGGGGAQVPRQKDCEWDPWTCEHMYVGLE
modifications: not fully specified; cysteine pairing not given here
B20: Con4-30 (C) (peptide)
chain: M[Fc(7)]GGGGGAQGPAQEECEWDPWTCEPLPLMLE
modifications: not fully specified (bridges); cysteine pairing not given here
B21: Con4-4 (C) (peptide)
chain: M[Fc]GGGGGAQWYEQDACEWDPWTCEHMAEVLE
modifications: not fully specified; cysteine pairing not given here
B22: Con4-49 (C) (peptide)
chain: M[Fc(4)]GGGGGAQWAAQEECEWDPWTCEHMGRMLE
modifications: not fully specified; cysteine pairing not given here
B23: Con4-29 (C) (peptide)
chain: M[Fc(7)]GGGGGAQRTTQEKCEWDPWTCEHMESQLE
modifications: not fully specified (bridges); cysteine pairing not given here
B24: Con4-28 (C) (peptide)
chain: M[Fc(7)]GGGGGAQAWGQEGCDWDPWTCEHMLPMLE
modifications: not fully specified (bridges); cysteine pairing not given here
B25: Con4-22 (C) (peptide)
chain: M[Fc(7)]GGGGGAQVWRSQVCQWDPWTCNLGGDWLE
modifications: not fully specified (bridges); cysteine pairing not given here
B26: Con4-7 (C) (peptide)
chain: M[Fc(4)]GGGGGAQLWQLAVCQWDPQTCDHMGALLE
modifications: not fully specified; cysteine pairing not given here
B27: Con4-34 (C) (peptide)
chain: M[Fc]GGGGGAQVKTQEHCDWDPWTCEHMREWLE
modifications: not fully specified; cysteine pairing not given here
B28: AC3-Con4 (C) (peptide)
chain: M[Fc(7)]GGGGGAQDKILEECEWDPWTCRLLQGWLE
modifications: not fully specified (bridges); cysteine pairing not given here
B29: Con4-24 (C) (peptide)
chain: M[Fc(7)]GGGGGAQPDTRQGCQWDPWTCRLYGMWLE
modifications: not fully specified (bridges); cysteine pairing not given here
B30: AC5-Con4 (C) (peptide)
chain: M[Fc(7)]GGGGGAQAATQEECEWDPWTCRLLQGWLE
modifications: not fully specified (bridges); cysteine pairing not given here
B31: Con4-12 (C) (peptide)
chain: M[Fc(7)]GGGGGAQTQLVSLCEWDPWTCRLLDGWLE
modifications: not fully specified (bridges); cysteine pairing not given here
B32: Con4-2 (C) (peptide)
chain: M[Fc(7)]GGGGGAQFGWSHGCEWDPWTCRLLQGWLE
modifications: not fully specified (bridges); cysteine pairing not given here
B33: Con4-15 (C) (peptide)
chain: M[Fc(7)]GGGGGAQQWSWPPCEWDPWTCQTVWPSLE
modifications: not fully specified (bridges); cysteine pairing not given here
B34: Con4-27 (C) (peptide)
chain: M[Fc(7)]GGGGGAQTWPQDKCEWDPWTCEHMGSTLE
modifications: not fully specified (bridges); cysteine pairing not given here
B35: Con4-3 (C) (peptide)
chain: M[Fc(7)]GGGGGAQDKILEECQWDPWTCQFFYGALE
modifications: not fully specified (bridges); cysteine pairing not given here
B36: Con4-41 (C) (peptide)
chain: M[Fc(4)]GGGGGAQNVRQEKCEWDPWTCEHMPVRLE
modifications: not fully specified; cysteine pairing not given here
B37: Con4-36 (C) (peptide)
chain: M[Fc]GGGGGAQKSGQVECNWDPWTCEHMPRNLE
modifications: not fully specified; cysteine pairing not given here

Biological target: T1, human Ang-2
Assay: competition ELISA vs Tie-2

Row | IC50 | Binder
1 | 9.8 nM | B1
2 | 0.75 nM | B2
3 | 4.8 nM | B3
4 | 0.52 nM | B4
5 | 3.75 nM | B5
6 | 0.48 nM | B6
7 | 0.4 nM | B7
8 | 2.47 nM | B8
9 | 5.76 nM | B9
10 | 20.1 nM | B10
11 | 0.26 nM | B11
12 | > 1000 nM | B12
13 | > 1000 nM | B13
14 | > 1000 nM | B14
15 | 1.2 nM | B15
16 | 0.16 nM | B16
17 | 0.38 nM | B17
18 | 9.7 nM | B18
19 | 0.18 nM | B19

Row | IC50 | Binder
20 | > 1000 nM | B20
21 | 0.12 nM | B21
22 | 0.19 nM | B22
23 | 0.41 nM | B23
24 | 0.3 nM | B24
25 | 150 nM | B25
26 | > 1000 nM | B26
27 | 0.28 nM | B27
28 | > 1000 nM | B28
29 | > 1000 nM | B29
30 | > 1000 nM | B30
31 | > 1000 nM | B31
32 | > 1000 nM | B32
33 | 15 nM | B33
34 | 0.22 nM | B34
35 | 282 nM | B35
36 | 0.26 nM | B36
37 | 0.28 nM | B37
